# Measurements: patent US20180362766A1, “Fluorogenic pH-Sensitive Dyes and Their Methods of Use” (Life Technologies Corporation, priority 2012, published 2018)
# Tested on: A 431 cells
# Assay: Live cell internalization (endocytosis) of dye-labeled EGF, fluorescence imaging
# Assay type: cell-based
# Description: A 431 cells were grown in complete medium on 35 mm poly-D-lysine coated glass bottom culture dishes from MatTek. On the day of the assay, cells were rinsed once with LCIS +1% BSA (Live Cell imaging solution, Cat# A14291DJ) and placed at 37° C. Control dishes received LCIS; EGF pretreatment dishes received 10 μg/mL unlabeled EGF in LCIS. Cells were incubated at 37° C. for 30 minutes. Cells were then cooled to 4° C. on ice for 10 minutes. Compound (24)-labeled EGF was added to the dishes 1:10 at 5 μg/mL from a 50 μg/mL stock in LCIS. These dishes were incubated on ice for 30 minutes, then washed 2× with cold LCIS and allowed to warm to 37° C. for 60 minutes before imaging with standard TRITC and FITC filter sets on a DeltaVision Core microscope. […] All images were matched for gain and exposure times.
molecule,measurement,setting,value
"Compound (24)-labeled EGF: epithelial growth factor (EGF) conjugated to Compound (24) STP ester, degree of substitution 1 (conjugate, UniProt P01133 23-1207, looked up, Pro-epidermal growth factor Compound (24) dye conjugate) Pro-epidermal growth factor: PQHWSCPEGTLAGNGNSTCVGPAPFLIFSHGNSIFRIDTEGTNYEQLVVDAGVSVIMDFHYNEKRIYWVDLERQLLQRVFLNGSRQERVCNIEKNVSGMAINWINEEVIWSNQQEGIITVTDMKGNNSHILLSALKYPANVAVDPVERFIFWSSEVAGSLYRADLDGVGVKALLETSEKITAVSLDVLDKRLFWIQYNREGSNSLICSCDYDGGSVHISKHPTQHNLFAMSLFGDRIFYSTWKMKTIWIANKHTGKDMVRINLHSSFVPLGELKVVHPLAQPKAEDDTWEPEQKLCKLRKGNCSSTVCGQDLQSHLCMCAEGYALSRDRKYCEDVNECAFWNHGCTLGCKNTPGSYYCTCPVGFVLLPDGKRCHQLVSCPRNVSECSHDCVLTSEGPLCFCPEGSVLERDGKTCSGCSSPDNGGCSQLCVPLSPVSWECDCFPGYDLQLDEKSCAASGPQPFLLFANSQDIRHMHFDGTDYGTLLSQQMGMVYALDHDPVENKIYFAHTALKWIERANMDGSQRERLIEEGVDVPEGLAVDWIGRRFYWTDRGKSLIGRSDLNGKRSKIITKENISQPRGIAVHPMAKRLFWTDTGINPRIESSSLQGLGRLVIASSDLIWPSGITIDFLTDKLYWCDAKQSVIEMANLDGSKRRRLTQNDVGHPFAVAVFEDYVWFSDWAMPSVMRVNKRTGKDRVRLQGSMLKPSSLVVVHPLAKPGADPCLYQNGGCEHICKKRLGTAWCSCREGFMKASDGKTCLALDGHQLLAGGEVDLKNQVTPLDILSKTRVSEDNITESQHMLVAEIMVSDQDDCAPVGCSMYARCISEGEDATCQCLKGFAGDGKLCSDIDECEMGVPVCPPASSKCINTEGGYVCRCSEGYQGDGIHCLDIDECQLGEHSCGENASCTNTEGGYTCMCAGRLSEPGLICPDSTPPPHLREDDHHYSVRNSDSECPLSHDGYCLHDGVCMYIEALDKYACNCVVGYIGERCQYRDLKWWELRHAGHGQQQKVIVVAVCVVVLVMLLLLSLWGAHYYRTQKLLSKNPKNPYEESSRDVRSRRPADTEDGMSSCPQPWFVVIKEHQDLKNGGQPVAGEDGQAADGSMQPTSWRQEPQLCGMGTEQGCWIPVSSDKGSCPQVMERSFHMPSYGTQTLEGGVEKPHSLLSANPLWQQRALDPPHQMELTQ",fluorescent signal from dye-labeled EGF internalization,cells pretreated with 10 μg/mL unlabeled EGF,no signal
same,fluorescent signal from dye-labeled EGF internalization,"untreated (control) plates, 5 μg/mL labeled EGF, 60 minutes at 37° C.",Specific signal
